The experiment deals with human α-synuclein E57K mutant (6xHis:α-Syn-E57K) (human) (UniProt P37840).

Chain of bacterial Hsp90 chaperone with C-terminal hexahistidine (Hsp90:6xHis) (P0A6Z3 whole entry): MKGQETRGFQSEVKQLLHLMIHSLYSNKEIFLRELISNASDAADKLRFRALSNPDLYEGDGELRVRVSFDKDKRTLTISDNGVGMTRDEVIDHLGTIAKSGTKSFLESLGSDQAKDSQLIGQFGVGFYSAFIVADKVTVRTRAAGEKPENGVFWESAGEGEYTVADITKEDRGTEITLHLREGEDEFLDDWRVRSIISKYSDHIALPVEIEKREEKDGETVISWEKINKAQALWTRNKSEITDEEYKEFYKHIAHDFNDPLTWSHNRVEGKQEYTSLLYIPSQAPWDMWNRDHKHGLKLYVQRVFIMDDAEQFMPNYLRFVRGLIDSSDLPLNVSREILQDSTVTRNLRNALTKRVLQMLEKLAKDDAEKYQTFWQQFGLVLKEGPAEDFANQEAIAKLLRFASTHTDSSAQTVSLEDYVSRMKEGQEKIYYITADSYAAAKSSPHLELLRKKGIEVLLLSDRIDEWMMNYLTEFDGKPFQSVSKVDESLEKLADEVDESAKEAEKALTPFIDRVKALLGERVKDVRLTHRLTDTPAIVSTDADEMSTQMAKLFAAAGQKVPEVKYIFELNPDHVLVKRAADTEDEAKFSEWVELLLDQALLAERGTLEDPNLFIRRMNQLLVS

The substance “bacterial Hsp90 chaperone with C-terminal hexahistidine (Hsp90:6xHis) (from UniProt P0A6Z3 1-624) (natural protein)” yielded an insoluble fraction of α-Syn-E57K after incubation under amyloidogenic conditions with free Hsp90 (18.42% without Hsp90); centrifugation, SDS-PAGE, band quantification of 5.67%.

The values above are taken from PMC10401628.
